According to PMC11106242, “Homozygous EPRS1 missense variant causing hypomyelinating leukodystrophy-15 alters variant-distal mRNA m^6A site accessibility” (Nature Communications, 2024):
Residue numbers refer to the chain shown, from its start. Names and notes keep the numbering of the source.

B1: Wild-type ProRS fragment of human EPRS1 (aa 930-1512) (domain or fragment, UniProt P07814 930-1512, looked up)
chain: IAVQELLQLKAQYKSLIGVEYKPVSATGAEDKDKKKKEKENKSEKQNKPQKQNDGQRKDPSKNQGGGLSSSGAGEGQGPKKQTRLGLEAKKEENLADWYSQVITKSEMIEYHDISGCYILRPWAYAIWEAIKDFFDAEIKKLGVENCYFPMFVSQSALEKEKTHVADFAPEVAWVTRSGKTELAEPIAIRPTSETVMYPAYAKWVQSHRDLPIKLNQWCNVVRWEFKHPQPFLRTREFLWQEGHSAFATMEEAAEEVLQILDLYAQVYEELLAIPVVKGRKTEKEKFAGGDYTTTIEAFISASGRAIQGGTSHHLGQNFSKMFEIVFEDPKIPGEKQFAYQNSWGLTTRTIGVMTMVHGDNMGLVLPPRVACVQVVIIPCGITNALSEEDKEALIAKCNDYRRRLLSVNIRVRADLRDNYSPGWKFNHWELKGVPIRLEVGPRDMKSCQFVAVRRDTGEKLTVAENEAETKLQAILEDIQVTLFTRASEDLKTHMVVANTMEDFQKILDSGKIVQIPFCGEIDCEDWIKKTTARDQDLEPGAPSMGAKSLCIPFKPLCELQPGAKCVCGKNPAKYYTLFGRSY
notes: ProRS fragment of human EPRS1 (glutamyl-prolyl-tRNA synthetase), aa 930-1512, subcloned in pTRC-HisB; also called recombinant WT ProRS; ProRS domain; source: E. coli BL21 Codon-plus (DE3)RIPL, purified (HisTrap HP column)
B2: P1482T mutant ProRS fragment of human EPRS1 (aa 930-1512) (domain or fragment, UniProt P07814 930-1512, looked up)
chain: B1 chain with P553T
notes: The substitution is a natural patient variant; also called Pro1482Thr ProRS; P1482T ProRS; source: E. coli BL21 Codon-plus (DE3)RIPL, purified (HisTrap HP column)

Biological target: the molecule itself
Assay: SEC; Superdex 200 size-exclusion column pre-calibrated with Bio-Rad gel-filtration standards, in purification buffer (50 mM Tris-HCl pH 8.0, 100 mM NaCl, 10% glycerol); monomer to dimer

Row | Protein | stoichiometry N
1 | B1 | 2
2 | B2 | 2
